In one experiment the target is insulin IR β receptor (Homo sapiens, UniProt P06213). As to the kind of experiment: HTRF kit method (insulin receptor phosphorylation). The settings on record: specificity comparison, Figure 6. The class given is cell-based. The text has this:
Currently, commercial kits such as HTRF (homogeneous time-resolved fluorescence) and AlphaElisa are commonly used to assess insulin activity. These assays measure insulin IR β receptor phosphorylation levels to characterize insulin's cellular bioactivity. On the one hand, commercial test kits such as HTRF and AlphaElisa are expensive and have high detection costs; on the other hand, technical means such as HTRF and AlphaElisa are relatively complicated to operate, usually requiring the addition of insulin drugs to co-incubate with cells, then adding lysis buffer for incubation and lysis, and then adding the corresponding phosphorylated antibody solution for incubation, and finally testing. Under normal circumstances, the sample volume of each step of these kits needs to be controlled to 4~8 µl, which requires a high level of operational skills of the analyst.
Two different analysts used the same batch of test products (prepared in 6 parallel portions) and reference products to perform tests using the HTRF kit method on different dates.

A further experiment deals with T1, insulin receptor B (Homo sapiens, UniProt P06213).
T1 construct: expressed in transfected cells; host or cells: HEK293 (HEK293-IRB monoclonal line; HEK293/IRB-STAT5b-03-Luciferase 001#clone)
As to the kind of experiment: Luciferase reporter gene detection method (HEK293/IRB-STAT5b-03-Luciferase cells, luminescence signal). The class given is cell-based. As to conditions: after stimulation of cells. The protocol:
① 0.6 mM insulin glargine reference solution: An appropriate amount of insulin glargine reference was weighed, dissolved completely in 0.01 M HCL and diluted to 0.6 mM, and mixed thoroughly.
② 0.6 mM Insulin Glargine Test Solution: An appropriate amount of insulin glargine injection solution was taken.
③ 15000 nM Reference/Test Solution Stock Solution: 780 µl of 0.01 M hydrochloric acid solution was added to 20 µl of a 0.6 mM insulin glargine reference/test solution and mixed thoroughly.
④ […] control/test solution: 780 µl of DMEM medium containing 1% FBS (fetal bovine serum) was added to 20 µl of a 15000 nM reference/test solution.
⑤ Serial dilutions of control/test compounds: Dilutions were performed in a 96-well plate according to the method shown in Table 1.
The culture flask was taken out of the incubator, the culture medium was discarded, and 2 ml of DPBS (sterile saline) buffer was added and gently washed twice. 1 ml of DPBS and 1 ml of trypsin solution were slowly added along the cell-free side of the flask to digest the cells for approximately 2 min. […]
After 15 h of incubation, the 384-well plate was removed from the incubator and allowed to stand at room temperature for approximately 5 min. […] After 3 minutes, the luminescence signal was detected in the LUM mode on a multi-functional microplate reader. […]
A general note: In a reporter assay the amount or activity of a reporter protein is the signal.

Take liraglutide: the “response in HTRF kit assay” value in the experiment with insulin IR β receptor is “no response”. For the same substance, in the experiment with insulin receptor B, the dose-effect relationship entry is listed as “no obvious dose-effect relationship”.

Values taken from patent EP4722237A1, “METHOD FOR DETECTING BIOLOGICAL ACTIVITY OF INSULIN OR ANALOGUE THEREOF AND KIT” (Sunshine Lake Pharma Co., Ltd., priority 2023, dated 2024).
